Positions count from the first letter of the chain named. Names may count otherwise.

Series [1] concerns the target T1, avLOX (Aerococcus viridans L-lactate oxidase) (Aerococcus viridans, UniProt Q44467).
T1 construct: wild type from Roche (grade 1, lyophilized); Y215 variants from plasmid pLO-1 in E. coli BL21 (DE3), no tag stated; missing residues 1-7 modeled for simulation only
T1 sequence (Q44467 1-374): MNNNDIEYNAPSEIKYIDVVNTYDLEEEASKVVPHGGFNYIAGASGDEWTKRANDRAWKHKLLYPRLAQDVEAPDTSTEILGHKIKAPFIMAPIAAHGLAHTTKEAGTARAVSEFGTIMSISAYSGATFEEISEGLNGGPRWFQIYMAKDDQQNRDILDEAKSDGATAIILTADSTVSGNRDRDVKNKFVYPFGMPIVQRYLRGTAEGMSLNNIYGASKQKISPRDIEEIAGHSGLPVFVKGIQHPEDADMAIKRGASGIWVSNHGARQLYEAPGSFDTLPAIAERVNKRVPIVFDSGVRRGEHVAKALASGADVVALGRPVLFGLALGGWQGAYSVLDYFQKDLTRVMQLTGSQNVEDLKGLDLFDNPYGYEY
Put plainly: stopped-flow anaerobic FMN reduction, […] nm, hyperbolic fit. The format is biochemical. The note with it: pH 5.5, 20 °C, 50 mM potassium phosphate, read-out: Enzyme / Wild-type avLOX / Reaction pH / 5.5.

Series [2] has as its system C[C@H](O)C(=O)O. Briefly: steady-state initial rates. The format is biochemical, Aerococcus viridans. The note with it: pH 6.5, 20 °C, air-saturated (250 μM O2), 50 mM potassium phosphate.
Series [3] relates to C[C@H](O)C(=O)O. Put plainly: purified protein. The note with it: pH 6.5, 20 °C, air-saturated (250 μM O2), 50 mM potassium phosphate.
Substrate in series [4]: C[C@H](O)C(=O)O
Put plainly: purified protein. As to conditions: pH 6.5, 20 °C, air-saturated (250 μM O2), 50 mM potassium phosphate. The source holds these as a separate data set.

Series [5] concerns the molecule itself. Put plainly: crystal structure; hanging drop vapor diffusion, 20 °C; 10 mg/mL protein in 50 mM potassium phosphate pH 7.0 mixed with 30% polyethylene glycol, 50 mM Tris-HCl pH 8.0, 50 mM pyruvate; spacegroup P2_(1), 2.6 Å.

Turning to `C[C@H](O)C(=O)O` [L-lactate], the Kd in series [1] came to 3 ± 0.4 mM.
As to “avLOX (Aerococcus viridans L-lactate oxidase) (Aerococcus viridans ATCC 11563 = CCUG 4311; Y215F)”, in series [2], the Km (as a rule, the substrate concentration at which the rate is half of its maximum) was determined as 130 ± 10 µM and the kcat (usually the maximal rate divided by the concentration of active sites) amounted to 22 ± 2 s⁻¹.
On to “avLOX (Aerococcus viridans L-lactate oxidase) (Aerococcus viridans ATCC 11563 = CCUG 4311; Y215H)”, for which, in series [3], the Km was 520 ± 120 µM.

B1: avLOX (Aerococcus viridans L-lactate oxidase) (Aerococcus viridans ATCC 11563 = CCUG 4311) (protein)
chain: T1 sequence (Q44467 1-374)
On to B1, for which, in series [4], the Km was determined as 500 ± 100 µM and the kcat turned out to be 88 ± 2 s⁻¹.

B2: Aerococcus viridans L-lactate oxidase Y215F variant (enzyme)
chain: T1 sequence (Q44467 1-374) with Y215F
notes: also called Y215F avLOX; avLOX Y215F mutant
For B2, the stoichiometry N (as a rule, a count of units in the complex or per binding partner) in series [5] amounted to 4.

(Values after paper PMC4908395, “Conformational flexibility related to enzyme activity: evidence for a dynamic active-site gatekeeper function of Tyr^215 in Aerococcus viridans lactate oxidase” (Scientific Reports, 2016).)
